Data on three molecules can be found in patent US20050153887A1.

Experiment in all cases: cell-based or functional assay
For experiment [1], the target named is Dishevelled (overexpressed in 293T cells for the reporter assay).
For experiment [2], the target named is Ryk (DNA construct expressing Ryk, transfected into 293T cells for the reporter assays).
The target in experiment [3] is endogenous Ryk of mouse (mouse) (UniProt Q01887).
For experiment [4], the target named is endogenous Ryk in 293T cells (human) (UniProt P34925).
Sequence of UniProt P34925 (P34925 other isoform, or with tags, fused parts or gaps limits assumed): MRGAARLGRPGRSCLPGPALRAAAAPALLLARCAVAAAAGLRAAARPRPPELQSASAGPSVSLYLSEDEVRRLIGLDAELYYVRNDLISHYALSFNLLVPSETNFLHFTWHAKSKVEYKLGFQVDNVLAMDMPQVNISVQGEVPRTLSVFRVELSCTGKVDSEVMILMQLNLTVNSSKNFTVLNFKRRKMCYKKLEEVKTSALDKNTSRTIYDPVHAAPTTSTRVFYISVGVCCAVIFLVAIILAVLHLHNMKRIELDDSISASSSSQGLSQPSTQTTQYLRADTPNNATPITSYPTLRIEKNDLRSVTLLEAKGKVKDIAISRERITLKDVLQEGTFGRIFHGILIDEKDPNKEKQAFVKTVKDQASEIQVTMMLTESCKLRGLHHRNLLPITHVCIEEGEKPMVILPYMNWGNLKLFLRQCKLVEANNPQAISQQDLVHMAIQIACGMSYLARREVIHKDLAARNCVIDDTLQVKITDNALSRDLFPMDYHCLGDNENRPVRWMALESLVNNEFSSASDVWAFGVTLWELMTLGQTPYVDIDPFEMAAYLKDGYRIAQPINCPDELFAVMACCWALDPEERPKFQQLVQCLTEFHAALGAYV

Sequence of UniProt Q01887 (Q01887 35-594 limits assumed): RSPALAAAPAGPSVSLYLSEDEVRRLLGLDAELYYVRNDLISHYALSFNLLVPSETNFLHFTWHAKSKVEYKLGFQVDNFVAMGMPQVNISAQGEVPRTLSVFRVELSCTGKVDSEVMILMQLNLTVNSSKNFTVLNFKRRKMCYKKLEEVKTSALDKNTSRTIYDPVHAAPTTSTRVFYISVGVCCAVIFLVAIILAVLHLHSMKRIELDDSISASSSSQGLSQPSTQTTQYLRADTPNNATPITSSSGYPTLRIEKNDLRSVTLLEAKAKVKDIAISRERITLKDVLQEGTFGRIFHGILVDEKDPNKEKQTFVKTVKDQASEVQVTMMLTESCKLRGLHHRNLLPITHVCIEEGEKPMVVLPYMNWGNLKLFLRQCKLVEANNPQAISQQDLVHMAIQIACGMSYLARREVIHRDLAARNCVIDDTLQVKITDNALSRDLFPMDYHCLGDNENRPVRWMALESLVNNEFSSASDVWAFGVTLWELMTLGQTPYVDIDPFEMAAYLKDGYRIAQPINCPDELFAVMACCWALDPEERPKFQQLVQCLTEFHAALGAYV

Turning to “Ryk (DNA construct expressing Ryk, transfected into 293T cells for the reporter assays) (receptor)”, the activation of the TCF-luciferase reporter on co-expression of Ryk with Dishevelled (Dishevelled alone about 15-fold) in experiment [1] is 25 fold. Regarding “Wnt3a (Wnt3a conditioned medium) (ligand)”, the activation of the TCF-luciferase reporter in 293T cells transfected with Ryk and treated with Wnt3a conditioned medium in experiment [2] is 5 fold. Besides, the average length of neurites of DRG explants in Wnt3a conditioned medium, Ryk siRNA mice against wild type in experiment [3] was 2 fold.

B1: Wnt-1 (cotransfected into 293T cells for the reporter assay) (ligand, UniProt P04628 28-370, looked up, species assumed)
Proto-oncogene Wnt-1: ANSSGRWWGIVNVASSTNLLTDSKSLQLVLEPSLQLLSRKQRRLIRQNPGILHSVSGGLQSAVRECKWQFRNRRWNCPTAPGPHLFGKIVNRGCRETAFIFAITSAGVTHSVARSCSEGSIESCTCDYRRRGPGGPDWHWGGCSDNIDFGRLFGREFVDSGEKGRDLRFLMNLHNNEAGRTTVFSEMRQECKCHGMSGSCTVRTCWMRLPTLRAVGDVLRDRFDGASRVLYGNRGSNRASRAELLRLEPEDPAHKPPSPHDLVYFEKSPNFCTYSGRLGTAGTAGRACNSSSPALDGCELLCCGRGHRTRTQRVTERCNCTFHWCCHVSCRNCTHTRVLHECL
In experiment [4], B1 yielded an activation of the TCF-luciferase reporter in wild type 293T cells after Wnt stimulation of 25 fold and an inhibition of TCF-driven transcription induced by Wnt-1 in Ryk siRNA-containing 293T cells of 12 fold.
